# Legend:
# EPHB2 = EPHB2 (UniProt P29323); assay: phosphorylation enrichment, bacterial display (enrichment ratio); higher = better substrate or ligand; peptides without Tyr show the background
# Fer (mouse) = assay: as above
# EPHB1 = EPHB1 (UniProt P54762); assay: as above
# Fes = Fes (UniProt P07332); assay: as above
# Fyn = Fyn (UniProt P06241); assay: as above
# Jak2 = Jak2 (UniProt O60674); assay: as above
# AncSZ = assay: as above
# MERTK = MERTK (UniProt Q12866); assay: as above
# FGFR3 = FGFR3 (UniProt P22607); assay: as above
# c-Abl (mouse) = assay: as above
# FGFR1 = FGFR1 (UniProt P11362); assay: as above
# Hck = Hck (UniProt P08631); assay: as above
# c-Src = assay: as above
# SHP2-C SH2 = assay: SH2 binding enrichment of the phosphorylated peptide, bacterial display (enrichment ratio); higher = better substrate or ligand; peptides without Tyr show the background
# c-Src SH2 = assay: as above
# Grb2 SH2 = Grb2 SH2 (UniProt P62993); assay: as above
# 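Wherever SH2 binding enrichment of the phosphorylated peptide, bacterial display is given: peptide library displayed on the E. coli surface as eCPX fusions, selected cells deep-sequenced, score is each peptide's frequency after selection divided by its frequency in the input.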
# 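Wherever phosphorylation enrichment, bacterial display is given: 11-residue human phosphosite peptides and single-mutation variants displayed on the E. coli surface, counted by deep sequencing, each peptide's frequency after selection divided by its frequency in the unselected input library; frequency after pTyr selection over input frequency; kinase dosed for 20-30% of maximal phosphorylation in three min.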
# Fyn, sequence (P06241 whole entry, looked up): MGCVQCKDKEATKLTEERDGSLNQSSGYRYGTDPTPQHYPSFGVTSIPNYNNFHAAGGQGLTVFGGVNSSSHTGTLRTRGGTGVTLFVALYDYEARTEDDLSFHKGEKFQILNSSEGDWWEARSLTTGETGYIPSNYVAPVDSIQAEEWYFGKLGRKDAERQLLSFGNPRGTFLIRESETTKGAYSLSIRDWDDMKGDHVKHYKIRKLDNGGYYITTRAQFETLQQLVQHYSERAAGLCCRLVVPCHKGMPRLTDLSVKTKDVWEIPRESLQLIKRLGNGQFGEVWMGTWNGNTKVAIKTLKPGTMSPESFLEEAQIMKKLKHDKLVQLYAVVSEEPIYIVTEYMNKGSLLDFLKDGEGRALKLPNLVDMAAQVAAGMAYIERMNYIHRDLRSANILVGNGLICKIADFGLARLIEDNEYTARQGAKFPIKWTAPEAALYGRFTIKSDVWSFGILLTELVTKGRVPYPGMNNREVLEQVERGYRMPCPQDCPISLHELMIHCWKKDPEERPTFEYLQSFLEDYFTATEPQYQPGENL
# Fes, sequence (P07332 whole entry, looked up): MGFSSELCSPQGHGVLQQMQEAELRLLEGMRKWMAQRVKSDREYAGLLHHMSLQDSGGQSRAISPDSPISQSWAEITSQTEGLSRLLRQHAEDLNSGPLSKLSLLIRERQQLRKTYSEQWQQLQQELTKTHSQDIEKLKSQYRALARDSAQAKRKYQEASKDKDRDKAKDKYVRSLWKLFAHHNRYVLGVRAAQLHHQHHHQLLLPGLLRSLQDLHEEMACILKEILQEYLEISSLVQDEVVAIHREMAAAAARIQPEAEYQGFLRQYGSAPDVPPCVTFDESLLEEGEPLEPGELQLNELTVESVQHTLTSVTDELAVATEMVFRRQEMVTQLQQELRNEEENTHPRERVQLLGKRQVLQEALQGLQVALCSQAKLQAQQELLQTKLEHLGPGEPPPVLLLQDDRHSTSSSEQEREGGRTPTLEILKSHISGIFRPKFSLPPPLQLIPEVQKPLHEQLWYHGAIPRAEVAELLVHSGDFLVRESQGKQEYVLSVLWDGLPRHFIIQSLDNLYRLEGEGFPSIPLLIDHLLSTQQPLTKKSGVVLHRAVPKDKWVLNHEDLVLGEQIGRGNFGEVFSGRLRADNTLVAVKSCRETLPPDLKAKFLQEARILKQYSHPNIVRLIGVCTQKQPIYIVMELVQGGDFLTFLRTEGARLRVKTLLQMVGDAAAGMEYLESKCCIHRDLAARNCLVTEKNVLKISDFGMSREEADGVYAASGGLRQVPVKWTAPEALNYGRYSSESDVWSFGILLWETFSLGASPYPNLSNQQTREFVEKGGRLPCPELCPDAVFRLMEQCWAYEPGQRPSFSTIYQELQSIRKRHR
# EPHB1, sequence (P54762 whole entry, looked up): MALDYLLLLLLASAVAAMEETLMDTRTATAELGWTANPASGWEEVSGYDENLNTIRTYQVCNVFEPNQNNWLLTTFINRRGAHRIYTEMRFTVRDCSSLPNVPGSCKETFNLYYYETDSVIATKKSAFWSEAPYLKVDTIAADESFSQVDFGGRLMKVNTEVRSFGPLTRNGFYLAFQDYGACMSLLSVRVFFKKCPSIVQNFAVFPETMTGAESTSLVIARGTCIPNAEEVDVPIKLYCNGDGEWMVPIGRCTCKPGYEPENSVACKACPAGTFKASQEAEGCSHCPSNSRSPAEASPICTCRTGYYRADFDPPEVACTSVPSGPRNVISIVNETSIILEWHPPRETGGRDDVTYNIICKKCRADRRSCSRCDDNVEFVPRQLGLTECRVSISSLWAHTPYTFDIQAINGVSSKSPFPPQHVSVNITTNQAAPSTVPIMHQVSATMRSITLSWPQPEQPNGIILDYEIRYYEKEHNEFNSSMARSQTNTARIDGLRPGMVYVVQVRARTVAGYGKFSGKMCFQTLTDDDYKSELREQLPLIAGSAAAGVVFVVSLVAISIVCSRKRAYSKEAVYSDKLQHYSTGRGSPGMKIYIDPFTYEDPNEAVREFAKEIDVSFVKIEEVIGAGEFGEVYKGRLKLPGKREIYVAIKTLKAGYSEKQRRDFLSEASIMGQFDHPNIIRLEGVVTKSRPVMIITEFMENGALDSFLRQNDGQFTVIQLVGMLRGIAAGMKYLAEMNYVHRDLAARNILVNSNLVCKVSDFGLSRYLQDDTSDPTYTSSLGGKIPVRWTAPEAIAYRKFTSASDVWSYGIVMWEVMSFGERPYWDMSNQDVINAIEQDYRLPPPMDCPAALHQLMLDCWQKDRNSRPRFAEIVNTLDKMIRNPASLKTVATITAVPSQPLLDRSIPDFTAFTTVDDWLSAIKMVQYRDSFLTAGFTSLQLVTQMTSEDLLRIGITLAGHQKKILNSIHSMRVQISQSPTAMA
# Jak2, sequence (O60674 whole entry, looked up): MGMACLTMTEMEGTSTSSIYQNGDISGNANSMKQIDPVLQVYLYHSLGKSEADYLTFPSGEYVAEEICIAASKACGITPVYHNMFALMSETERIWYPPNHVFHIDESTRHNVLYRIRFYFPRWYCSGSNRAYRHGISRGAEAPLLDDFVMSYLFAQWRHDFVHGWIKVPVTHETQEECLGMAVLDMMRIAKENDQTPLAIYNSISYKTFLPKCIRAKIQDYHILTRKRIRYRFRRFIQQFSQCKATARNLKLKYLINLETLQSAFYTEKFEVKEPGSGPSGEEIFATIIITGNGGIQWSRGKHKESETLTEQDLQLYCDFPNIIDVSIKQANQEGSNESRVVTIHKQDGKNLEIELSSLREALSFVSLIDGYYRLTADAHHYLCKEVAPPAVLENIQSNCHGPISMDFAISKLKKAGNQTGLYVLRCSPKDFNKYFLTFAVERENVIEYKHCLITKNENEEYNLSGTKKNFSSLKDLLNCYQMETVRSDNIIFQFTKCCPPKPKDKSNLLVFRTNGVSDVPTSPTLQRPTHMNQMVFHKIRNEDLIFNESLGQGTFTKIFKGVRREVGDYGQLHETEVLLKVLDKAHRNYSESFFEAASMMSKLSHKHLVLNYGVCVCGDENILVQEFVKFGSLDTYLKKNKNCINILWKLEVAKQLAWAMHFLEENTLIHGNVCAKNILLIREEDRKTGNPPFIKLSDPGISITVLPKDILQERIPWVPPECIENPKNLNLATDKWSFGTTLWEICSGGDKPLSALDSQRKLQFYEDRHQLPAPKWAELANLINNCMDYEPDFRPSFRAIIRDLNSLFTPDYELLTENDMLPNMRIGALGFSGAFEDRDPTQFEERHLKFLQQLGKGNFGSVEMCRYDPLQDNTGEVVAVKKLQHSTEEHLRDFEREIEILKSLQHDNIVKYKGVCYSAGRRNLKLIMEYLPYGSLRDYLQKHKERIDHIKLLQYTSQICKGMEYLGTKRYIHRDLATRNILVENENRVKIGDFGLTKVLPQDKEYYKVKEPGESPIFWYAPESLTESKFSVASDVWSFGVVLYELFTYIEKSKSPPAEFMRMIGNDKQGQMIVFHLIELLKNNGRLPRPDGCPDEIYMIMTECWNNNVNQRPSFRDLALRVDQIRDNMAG
# FGFR1, sequence (P11362 whole entry, looked up): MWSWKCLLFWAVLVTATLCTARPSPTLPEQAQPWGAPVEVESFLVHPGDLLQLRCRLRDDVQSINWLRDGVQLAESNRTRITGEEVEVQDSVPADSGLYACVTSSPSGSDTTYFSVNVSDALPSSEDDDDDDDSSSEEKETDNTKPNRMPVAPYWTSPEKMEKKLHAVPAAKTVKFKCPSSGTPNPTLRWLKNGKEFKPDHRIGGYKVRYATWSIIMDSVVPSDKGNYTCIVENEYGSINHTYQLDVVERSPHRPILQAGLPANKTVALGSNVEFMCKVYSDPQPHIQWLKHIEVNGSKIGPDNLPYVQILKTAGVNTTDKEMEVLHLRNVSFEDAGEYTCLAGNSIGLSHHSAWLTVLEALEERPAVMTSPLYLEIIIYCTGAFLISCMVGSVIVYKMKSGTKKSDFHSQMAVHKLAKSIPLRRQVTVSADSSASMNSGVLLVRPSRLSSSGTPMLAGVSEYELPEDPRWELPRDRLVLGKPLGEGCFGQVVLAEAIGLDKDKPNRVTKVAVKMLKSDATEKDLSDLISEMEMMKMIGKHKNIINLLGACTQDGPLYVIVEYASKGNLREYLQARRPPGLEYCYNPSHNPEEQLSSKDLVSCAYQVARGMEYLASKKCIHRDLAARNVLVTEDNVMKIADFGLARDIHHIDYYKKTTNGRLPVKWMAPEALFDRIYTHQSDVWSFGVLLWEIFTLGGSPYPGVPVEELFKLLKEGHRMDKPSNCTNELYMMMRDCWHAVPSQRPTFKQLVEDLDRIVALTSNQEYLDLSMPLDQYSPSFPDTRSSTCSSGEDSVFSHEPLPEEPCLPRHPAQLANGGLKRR
# FGFR3, sequence (P22607 whole entry, looked up): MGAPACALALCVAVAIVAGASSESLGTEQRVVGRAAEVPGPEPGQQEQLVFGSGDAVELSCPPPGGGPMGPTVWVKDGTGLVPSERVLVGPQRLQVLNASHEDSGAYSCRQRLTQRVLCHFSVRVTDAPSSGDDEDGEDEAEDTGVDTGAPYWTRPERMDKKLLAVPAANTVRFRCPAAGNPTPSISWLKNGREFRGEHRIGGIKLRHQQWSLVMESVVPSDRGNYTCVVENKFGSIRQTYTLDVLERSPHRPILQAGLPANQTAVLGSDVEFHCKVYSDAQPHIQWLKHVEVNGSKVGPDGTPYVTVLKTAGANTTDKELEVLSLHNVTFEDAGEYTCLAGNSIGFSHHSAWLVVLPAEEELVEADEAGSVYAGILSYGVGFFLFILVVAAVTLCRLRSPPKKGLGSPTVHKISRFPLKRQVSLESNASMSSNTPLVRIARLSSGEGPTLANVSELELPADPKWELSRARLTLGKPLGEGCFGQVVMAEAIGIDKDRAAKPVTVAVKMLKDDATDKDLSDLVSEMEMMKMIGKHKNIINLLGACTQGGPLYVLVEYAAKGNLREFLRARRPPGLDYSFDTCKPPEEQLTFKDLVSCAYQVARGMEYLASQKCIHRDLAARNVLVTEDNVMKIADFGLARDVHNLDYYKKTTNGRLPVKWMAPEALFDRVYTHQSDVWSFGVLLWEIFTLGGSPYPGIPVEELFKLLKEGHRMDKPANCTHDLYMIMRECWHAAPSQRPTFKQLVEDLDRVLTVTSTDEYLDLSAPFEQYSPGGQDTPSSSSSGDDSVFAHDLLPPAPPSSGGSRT
SH2 binding enrichment (SHP2-C SH2),SH2 binding enrichment (c-Src SH2),SH2 binding enrichment (Grb2 SH2),Sequence,phosphorylation enrichment (EPHB2),phosphorylation enrichment (Fer (mouse)),phosphorylation enrichment (EPHB1),phosphorylation enrichment (Fes),phosphorylation enrichment (Fyn),phosphorylation enrichment (Jak2),phosphorylation enrichment (AncSZ),phosphorylation enrichment (MERTK),phosphorylation enrichment (FGFR3),phosphorylation enrichment (c-Abl (mouse)),phosphorylation enrichment (FGFR1),phosphorylation enrichment (Hck),phosphorylation enrichment (c-Src)
0.598,1.02,0.98,AGREEYSAMRD [KRAS_Y64_Q61R],0.546,0.453,0.506,0.834,0.479,0.686,0.787,0.425,0.575,0.655,0.472,0.508,0.421
1.4,1.03,1.06,AGREIYESDKC [TTN_Y4424],0.607,0.519,0.524,0.996,0.538,0.731,0.949,0.447,0.819,0.616,0.608,0.523,0.536
1.18,0.785,0.996,AIMSFYAALIN [RYR1_Y2426_D2431N],0.991,0.672,1.14,1.3,0.508,1.06,1.13,1.09,0.772,1,0.575,0.764,0.497
0.879,0.774,0.9,AKNKDYMSIIR [GNE_Y197],0.553,0.473,0.851,0.677,0.409,0.706,0.585,0.468,0.585,0.676,0.432,0.483,0.452
0.63,0.43,0.756,ALAHKYHGGGG [HBB_Y146],0.349,0.361,0.333,0.578,0.426,0.503,0.621,0.461,0.343,0.534,0.537,0.417,0.383
0.608,0.503,1.01,ALAHKYLGGGG [HBB_Y146_H147L],0.387,0.269,0.324,0.389,0.366,0.464,0.378,0.407,0.325,0.289,0.307,0.347,0.278
0.616,0.464,0.815,APGDAYGDAGY [SYP_Y250],0.662,0.512,0.541,0.871,0.413,0.765,0.891,0.442,0.615,0.616,0.494,0.463,0.405

# Second part, the sequence before the results:
Sequence,SH2 binding enrichment (SHP2-C SH2),SH2 binding enrichment (c-Src SH2),SH2 binding enrichment (Grb2 SH2),phosphorylation enrichment (EPHB2),phosphorylation enrichment (Fer (mouse)),phosphorylation enrichment (EPHB1),phosphorylation enrichment (Fes),phosphorylation enrichment (Fyn),phosphorylation enrichment (Jak2),phosphorylation enrichment (AncSZ),phosphorylation enrichment (MERTK),phosphorylation enrichment (FGFR3),phosphorylation enrichment (c-Abl (mouse)),phosphorylation enrichment (FGFR1),phosphorylation enrichment (Hck),phosphorylation enrichment (c-Src)
AGITAYQSCLQ [ADGRA2_Y377],0.497,0.395,0.827,0.717,0.63,0.685,1.3,0.633,1.03,1.12,0.59,0.951,0.918,0.562,0.568,0.518
AKLVQYYMEHH [PTPN11_Y80_E76K],1.75,0.718,0.936,1.21,0.447,2.46,0.839,0.469,0.799,0.774,0.983,0.549,0.709,0.633,0.637,0.615
AKQVGYENAGT [PC_Y304],0.646,1.19,4.11,0.446,0.461,0.511,0.614,0.439,0.467,0.633,0.432,0.549,0.447,0.394,0.464,0.433
ALTDNYMFLVI [HAGH_Y61_YF],0.441,0.366,0.68,6.12,2.88,8.31,1.62,0.615,1.49,1.37,1.97,5.16,1.22,7.04,0.869,0.733
ALVDTYCRHNY [HLA-DRB1_Y107_A103L],0.79,0.582,0.911,0.486,0.442,0.439,0.709,0.46,0.456,0.474,0.618,0.501,0.515,0.401,0.549,0.432
ALWFIYLHTRS [ENG_Y614_S615L_YF],0.882,0.564,0.875,0.583,0.485,0.585,1.37,0.433,1.13,1.2,0.422,0.778,0.979,0.409,0.428,0.411
APIEDYGGGGG [B4GALT6_Y382],0.627,0.501,0.702,0.599,0.505,0.649,0.965,0.566,0.794,0.872,0.461,0.697,0.661,0.523,0.509,0.449
APQYTYAQGGQ [FLNA_Y1763],1.26,2.62,0.778,0.43,0.409,0.373,0.643,0.486,0.54,0.72,0.486,0.53,0.54,0.453,0.509,0.455
AQADIYKADFQ [IKBKG_Y308],0.647,0.421,0.836,0.535,0.354,0.465,0.848,0.734,0.672,0.856,0.399,0.722,0.675,0.44,0.78,0.925
AQAERYDDMAA [YWHAG_Y20_E15A],0.699,2.79,0.858,0.595,0.529,0.577,0.881,0.478,0.954,0.871,0.389,0.67,0.668,0.469,0.476,0.439

# — the supplement of paper PMC10065799, “High-throughput profiling of sequence recognition by tyrosine kinases and SH2 domains using bacterial peptide display” (eLife, 2023)
